# T1: rodent Aβ3pE-40 (rodent, UniProt P12023 674-711, pyroglutamate at the third residue of Aβ (N-terminal residue of this peptide))
# T1 construct: domain: Aβ3pE-40; Synthetic peptide
# T1 peptide (looked up): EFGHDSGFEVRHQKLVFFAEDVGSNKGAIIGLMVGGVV
# How the values were obtained:
# rodent Aβ3pE-40 = biological target: T1, rodent Aβ3pE-40; test: sandwich ELISA, Aβ/pE3/1 coated, detection with JRF/cAβ40/28-HRPO
# Procedure: (§1) Concentrations up to 10,000 […] were tested.
# (§2) Standards were dissolved in dimethylsulphoxide (DMSO) (Sigma) at 0.1 mg/mL and stored at −80° C. For use in ELISA, peptides were further diluted in 0.1% casein in PBS down to 1 μg/mL. […] Standards were incubated overnight at 4° C. together with HRPO-labeled secondary antibody (JRF/cAβ40/28-HRPO or JRF/cAβ42/26-HRPO). After overnight incubation, plates were washed and the assay was developed with TMB peroxide EIA substrate kit (Biorad) according to the manufacturer's recommendations.
# human Aβ3-42 peptide = biological target: T2, human Aβ3-42 peptide (human); test: sandwich ELISA, Aβ/pE3/1 coated, detection with JRF/cAβ42/26-HRPO
# T2 construct: Synthetic peptide; also called N-truncated (Aβ3-42)
# Procedure: as §1, §2
# human Aβ1-42 peptide = biological target: T3, human Aβ1-42 peptide (human); test: as above
# T3 construct: Synthetic peptide; also called full-length human (Aβ1-42)
# Procedure: as §1, §2
# human Aβ3pE-40 peptide [1] = biological target: T4, human Aβ3pE-40 peptide (human, pyroglutamate at the third residue of Aβ (N-terminal residue of this peptide)); test: sandwich ELISA, antibody coated, peptide standard, detection with JRF/cAβ40/28-HRPO
# T4 construct: Synthetic peptide (AnaSpec)
# Procedure: (§3) For the selected Aβ3pE monoclonal antibodies, the sensitivity for detection of Aβ3-40 (SEQ ID NO:24) (AnaSpec, Fremont, USA) and Aβ3pE-40 (SEQ ID NO:22) (AnaSpec, Fremont, USA) was evaluated in a sandwich assay using synthetic peptides as standards.
# (§4) Standards of Aβ3-40 (SEQ ID NO:24) and Aβ3pE-40 (SEQ ID NO:22) peptides were dissolved in dimethylsulphoxide (DMSO) (Sigma) at 0.1 mg/mL and stored at −80° C. For use in ELISA, peptides were further diluted in 0.1% casein in PBS down to 1 μg/mL. […] Standards were incubated overnight at 4° C. together with HRPO-labeled secondary antibody. After overnight incubation, the plates were washed and the assay was developed with Quantablu substrate (Pierce, Rockford, Ill.) according to the manufacturer's recommendations.
# human Aβ3-40 peptide [2] = biological target: T5, human Aβ3-40 peptide (human); test: as above
# T5 construct: Synthetic peptide (AnaSpec), N-truncated, no pyroglutamate
# Procedure: as §3, §4
# human Aβ3pE-40 peptide [3] = biological target: T4, human Aβ3pE-40 peptide; test: sandwich ELISA: Aβ/pE3/1 coated as capture, peptide titrated, detection with JRF/cAβ40/28-HRPO, net OD 450 nm
# Procedure: as §1, §2
# human Aβ3-40 peptide [4] = biological target: T5, human Aβ3-40 peptide; test: as above
# Procedure: as §1, §2
# human Aβ1-40 peptide = biological target: T6, human Aβ1-40 peptide (human); test: as above
# T6 construct: Synthetic peptide
# Procedure: as §1, §2
# human Aβ3pE-40 peptide [5] = biological target: T4, human Aβ3pE-40 peptide; test: SPR (Biacore T200), single cycle kinetics, antibody captured by anti-mouse antibody, peptide 3.125-50 nM, 1:1 fit, mean of n = 6
# Procedure: Immobilization of the anti-mouse antibody was performed via amine coupling on a CM5 sensor chip following the manufacturer's protocol. […] The surface was regenerated with 10 mM glycine HCl at pH 1.7 for at least 180 sec and additional 60 sec. Human Aβ (1-40) peptide was used as a negative control.
# Affinity measurements were performed using an optical biosensor T200 (Biacore®). Kinetic analysis was performed according to 1:1 binding fitting model with Biacore T200 Evaluation Software (version 2.0).
# T3 sequence (peptide, as listed by the source): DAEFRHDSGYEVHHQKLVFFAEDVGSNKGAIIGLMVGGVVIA
# T2 sequence (peptide, as listed by the source): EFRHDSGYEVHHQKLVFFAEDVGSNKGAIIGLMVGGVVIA
binder,measurement,setting,value
"Aβ/pE3/1 (antibody, mouse IgG2a, kappa, V domains shown, Murine monoclonal; also called Clone 1; antibody from clone 1) VH: QVQLQQPGAELVRPGASVKLSCKTSGYTFTRYWINWVKQRPGQGLEWIGNIRPSDSYTNYNQKFKDKATLTVDKSSSTAYMQLNRPTSEDSAVYYCTREGAYSDYETYWGQGTLVTVSA VL: not shown",binding result,rodent Aβ3pE-40,no binding (tested: up to 10 ng/mL)
same,binding result,human Aβ3-42 peptide,binds
same,binding result,human Aβ1-42 peptide,no binding (tested: up to 10 ng/mL)
same,EC50,human Aβ3pE-40 peptide [1],26 pM
same,EC50,human Aβ3-40 peptide [2],355 pM
same,EC50 (read off the curve),human Aβ3pE-40 peptide [3],~0.1 ng/mL
same,EC50 (read off the curve),human Aβ3-40 peptide [4],~1 ng/mL
same,binding result,human Aβ1-40 peptide,no binding (tested: 10000 pg/ml (LOG 4))
same,Kd,human Aβ3pE-40 peptide [5],853 pM

# Reference: patent publication US20200165328A1 (Janssen / Centocor, published 2020)
